This note sets out measurements from patent US20190330316A1 (published 2019).

Where a chain is given by its changes, count along the chain named.

B1: hu16G7VHv2b/hu16G7VLv2 (antibody, V domains shown)
VH: EVQLVQSGAEVVKPGASVKVSCKASGYTFTSSWIHWVRQRPGQGLEWIGEIYPNSGNTNYNEKFKGRVTLTRDISISTAYMELSRLTSDDTAVYYCARLGWLIPLDYWGQGTTVTVSS
VL: DIVLTQSPSSLAVSVGERATISCKSSQSLLDGNDQKNYLAWYQQKPGQSPKLLIYWASTRESGVPDRFSGSGSGTDFTLTISSLQAEDVAVYYCQQFYDYPWTFGGGTKLEIKR
B2: hu16G7VHv7/hu16G7VLv2 (antibody, V domains shown)
VH: B1 VH with S7P, V12K, R40A, I48M, L70M, R72V, T87R
VL: B1 VL
B3: chimeric 16G7 antibody (antibody, V domains shown)
VH: QVQLQQPGSVLVRPGASVKLSCKASGYTFTSSWIHWAKQRPGQGLEWIGEIYPNSGNTNYNEKFKGKATLTVDISSSTAYVDLTSLTSEDSAVYYCARLGWLIPLDYWGQGTTLIVSS
VL: B1 VL with T5S, R18K, A19V, I21M, I54M, S69T, Q85K, V89L
B4: hu16G7VHv2a/hu16G7VLv2 (antibody, V domains shown)
VH: B1 VH with R67K, V68A, R72V
VL: B1 VL

As a reminder, the Kd is the equilibrium constant for the complex coming apart.

Chain of recombinant human tau (P10636 other isoform, or with tags, fused parts or gaps): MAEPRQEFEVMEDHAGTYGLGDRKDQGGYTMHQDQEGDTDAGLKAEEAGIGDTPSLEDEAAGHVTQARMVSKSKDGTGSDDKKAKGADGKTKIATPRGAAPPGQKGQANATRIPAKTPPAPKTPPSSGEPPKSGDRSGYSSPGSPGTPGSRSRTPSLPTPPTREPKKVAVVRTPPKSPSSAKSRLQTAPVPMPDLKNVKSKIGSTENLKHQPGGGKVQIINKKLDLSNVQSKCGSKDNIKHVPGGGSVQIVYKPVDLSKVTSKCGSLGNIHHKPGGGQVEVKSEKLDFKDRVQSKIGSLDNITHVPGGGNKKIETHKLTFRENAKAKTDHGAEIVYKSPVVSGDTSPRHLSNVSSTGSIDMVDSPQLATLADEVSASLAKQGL

The test addresses recombinant human tau (human, UniProt P10636 1-383). The test is described as follows: SPR.
For the molecule B1, the equilibrium dissociation constant (Kd) is 0.303 nM.

Consider B2, for which the equilibrium dissociation constant (Kd) was determined as 0.293 nM. Regarding B3, the dissociation constant Kd is 0.187 nM.

Turning to B4, the dissociation constant (Kd) is 0.277 nM.
